Laboratory results as given in the Human Domainome abundance scans (Beltran et al. 2025).

B1: Kinesin-like protein KIF16B, residues 1213 to 1273; numbered along this chain, Q96L93 (parent)
chain: ETWTVFRRYSRFREMHKTLKLKYAELAALEFPPKKLFGNKDERVIAERRSHLEKYLRDFFS

Variants of: B1
Test: abundance fitness (aPCA) (normalised: wild type 0, dead -1); higher = more abundant; growth selection in yeast, the domain comes from the species named
Settings: Homo sapiens

Abundance fitness of substitutions, site by site:
D58: W 0.204, H 0.09, L -0.075, I 0.012, F 0.049, R 0.161, N -0.149, K 0.241, C -0.024, P 0.09, Q -0.153, G 0.03, A 0.087, S -0.182, M 0.056, V -0.048
K54: V -0.289, M -0.327, L -0.256, C -0.785, W -0.476, N -0.127, D -0.489, E -0.298, R 0.076, F -0.664, A -0.251, G -0.171, S -0.174, I -0.314, P -0.945, T -0.013, H -0.532
S50: C 0.256, L -0.042, A -0.213, F -0.117, W 0.117, G -0.1, V -0.36, E -0.696, K -0.133, N 0.05, T -0.056, H -0.039, P 0.045, Y -0.66, D -0.11, Q -0.545, R -0.301
R48: S -0.018, Y -0.266, G 0.108, E -0.374, W 0.275, P 0.113, M 0.159, F 0.087, V -0.05, T -0.363, K -0.061, Q -0.291, D -0.186, I 0.123
F59: T -0.489, Q -0.51, G -0.573, K -0.204, S -0.994, I -0.031, L -0.157, C -0.429, R -0.461, A -0.607, E -0.627, W -0.005, M -0.277, V -0.121
R49: A -0.166, G -0.01, S -0.145, I 0.367, C 0.247, L 0.279, K 0.504, Y -0.68, Q -0.201, M -0.477, P -0.273, W -0.064, V -0.41, T -0.286
L52: P 0.175, N -0.642, H -0.123, F 0.048, T -0.363, W 0.217, A -0.201, I -0.092, V 0.058, Q -0.866, R -0.473, G -0.149, M -0.131, S -0.647, K -0.184
H51: K 0.376, D -0.778, S -0.047, Y -0.235, N -0.436, A 0.043, Q 0.002, E -0.379, P -0.164, R 0.194, C -0.359, W -0.069, G 0.248, M -0.368, I -0.294, L -0.098
F60: P -0.759, V -0.165, Q -1.01, E -1, A -0.729, S -0.585, I -0.143, R -0.565, M -0.256, W 0.153, C -0.263, G -0.647, L -0.087
L56: M -0.191, T -0.001, S -0.453, E -1.2, I -0.011, Y -0.263, P -0.308, K -0.567, Q 0.163, N -0.518, R -0.584, D -0.343, C 0.032, V -0.019
R57: N -0.395, E -0.636, M -0.468, T -0.309, L -0.368, S -0.427, Q -0.776, P -0.087, H -0.6, A -0.444, Y -0.437, D -0.712, W -0.447, I -0.388, V -0.412, F -0.33, C -0.239, K -0.094
E53: P 0.228, K 0.391, S 0.414, R 0.412, Y 0.329, A 0.191, F 0.243, M 0.309, I 0.197, H 0.059, G 0.426, W 0.378, V 0.277, N 0.292, T 0.317, C 0.31, L 0.352
Y55: W 0.281, E -0.942, N -0.249, S 0.12, R 0.396, V -0.082, A -0.007, H -0.116, C 0.265, D -0.613, L 0.182, M 0.185, P -0.19, K 0.481, G 0.021
S61: L -0.038, K -0.025, T -0.296, C -0.412, M -0.073, N -0.23, R 0.143, P -0.337, A -0.263, V -0.029, G -0.09, Q 0.11, Y -0.81
